Consider one molecule from patent US5114710A, “M-CSF as a therapeutic agent for thrombocytopenia” (Green Cross Corporation, priority 1988, dated 1992).

“Also recorded” adds a separate entry of the source.

The test system of series [1] is mouse marrow cells. Put plainly: Colony stimulating activity: colony formation of mouse marrow cells on single-layer soft agar gel. It is filed as cell-based. On the procedure:
(§1) The colony stimulating activity of the CSF according to the invention was determined by the method involving colony formation of mouse marrow cells on a single-layer soft agar gel. Thus, the CSF sample was admixed with 1 ml of McCoy's 5A medium (GIBCO) containing 0.3% agar, 20% fetal calf serum (FCS) and 1×10^5 mouse marrow cells. Incubation was carried out at 37° C. for 7 days under a stream of 7.5% CO2 -containing air. Thereafter, cell aggregates consisting of 50 or more cells were judged as colonies and counted. The colony stimulating activity was expressed in units. One unit was defined as the quantity of CSF required for the formation of one colony. The specific activity was expressed in terms of the number of colonies (units) formed per milligram of the CSF protein. […] The colonies formed were stained with hematoxylin-eosin for morphological classification.

In series [2] the test system is patients with thrombocytopenia. Put plainly: Administration to patients with thrombocytopenia (summary of clinical test examples 1 and 2). The format is in vivo, human. To be noted: administration in the course of chemotherapy. The source says:
A malignant tumor patient was subjected to chemotherapy (first chemotherapy), then merely observed for a period (control phase) and, after a second chemotherapy, administered with 8×10^6 units of a glycoprotein preparation comprising the prepared in Reference Example 1 as active ingredient by intravenous drip for 7 consecutive days (preparation administration phase). Blood granulocytes and platelets were counted at timed intervals. The minimum platelet count and the number of days required for the platelet level to regain a level of at least 10^5 /mm^3 in the control phase and in the preparation administration phase are comparatively shown in Table 4.
Ten malignant tumor patients were subjected to a first chemotherapy, then observed without any treatment for a period (control phase) and, after a second chemotherapy, administered with 8×10^6 units of a glycoprotein preparation comprising the CSF prepared in Reference Example 1 as active ingredient by intravenous drip for 7 consecutive days (preparation administration phase). Blood platelets were counted at timed intervals. The minimum platelet count and the number of days required for the platelet count to regain a level of at least 10^5 /mm^3 in the control phase and in the preparation administration phase are comparatively shown in Table 5.

The nature of series [3]: Isoelectric point by polyacrylamide gel isoelectric focusing and sucrose density gradient isoelectric focusing. It is filed as physicochemical. The source says:
The isoelectric point (pI) as determined by the polyacrylamide gel isoelectric focusing and sucrose density gradient isoelectric focusing techniques is 3.1-3.7.

A short description of series [4]: Thermal stability: colony stimulating activity after heating. The format is physicochemical. To be noted: 1 μg/ml, dilute buffer pH 7.0, 60±0.5° C., 60 minutes. Here is the method:
The CSF was dissolved in a dilute buffer (pH 7.0) to a concentration of 1 μg/ml, and the solution was heated at 60±0.5° C. for 60 minutes and then assayed for colony stimulating activity (to be mentioned later herein).
as §1

B1: CSF: human monocyte-macrophage colony stimulating factor, glycoprotein homodimer of two identical subunits (35,000-45,000 daltons each), purified from human urine (protein, UniProt P09603 33-554, looked up)
Macrophage colony-stimulating …: EEVSEYCSHMIGSGHLQSLQRLIDSQMETSCQITFEFVDQEQLKDPVCYLKKAFLLVQDIMEDTMRFRDNTPNAIAIVQLQELSLRLKSCFTKDYEEHDKACVRTFYETPLQLLEKVKNVFNETKNLLDKDWNIFSKNCNNSFAECSSQDVVTKPDCNCLYPKAIPSSDPASVSPHQPLAPSMAPVAGLTWEDSEGTEGSSLLPGEQPLHTVDPGSAKQRPPRSTCQSFEPPETPVVKDSTIGGSPQPRPSVGAFNPGMEDILDSAMGTNWVPEEASGEASEIPVPQGTELSPSRPGGGSMQTEPARPSNFLSASSPLPASAKGQQPADVTGTALPRVGPVRPTGQDWNHTPQKTDHPSALLRDPPEPGSPRISSLRPQGLSNPSTLSAQPQLSRSHSSGSVLPLGELEGRRSTRDRRSPAEPEGGPASEGAARPLPRFNSVPLTDTGHERQSEGSFSPQLQESVFHLLVPSVILVLLAVGGLLFYRWRRRSHQEPQRADSPLEQPEGSPLTQDDRQVELPV
modifications: urinary homodimer
notes: human monocyte-macrophage colony stimulating factor, glycoprotein homodimer of two identical subunits (35,000-45,000 daltons each), purified from human urine
B1: the specific activity in series [1] (Reference Example 2, CSF purified with antibody-bound carrier) is on record as 5.2×10^7 units/mg; in series [1] (Reference Example 2, CSF-containing solution before antibody-bound carrier treatment), 2 ×10^5 units/mg; in series [1] (purification step (1) DEAE-cellulose) it was 1.6 × 10^5 units/mg; in series [1] (purification step (2) Sephacryl S-300), 5.7 × 10^5 units/mg; in series [1] (purification step (3) Phenyl-Sepharose), 8.8 × 10^6 units/mg; in series [1] (purification step (4) TSKG-3,000 SW) it was 2.0 × 10^7 units/mg. Besides, the specific activity in series [1] (purification step (5) Hi-Pore RP-304 (final)) is on record as 1.4 × 10^8 units/mg. Besides, the “monocyte-macrophage colonies among the colonies formed” value in series [1] (hematoxylin-eosin staining, morphological classification) is reported as “at least 95%”. For the same molecule, the “specific activity (colony stimulating activity)” value in series [1] (purified CSF, mouse marrow cells, 7 days at 37° C., one unit = one colony) is reported as 1.4×10^8 units per milligram of protein. The “restoration of a normal platelet level” value in series [2] is recorded as “rapid restoration of a normal platelet level”. Moreover, in series [3], the “isoelectric point (pI)” value is 3.1-3.7. In series [4], the “thermal stability (colony stimulating activity after heating)” value is “The biological activity is not lost; also recorded: Almost no activity decrease was observed”.
